What was measured:
Experiment in all cases: co-IP (anti-FLAG) in HEK293T cells, band intensity quantified
Settings in all cases: parent: est. 1.0; read off a plot
[1] = target: human HA-tagged REDIC1 (UniProt Q86WS4)
[2] = target: human HA-tagged M1AP (UniProt Q8TC57)
[3] = target: mouse HA-tagged M1AP (UniProt Q9Z0E1)
[4] = target: mouse HA-tagged REDIC1 (UniProt A0A087WRU1)
Chain of UniProt A0A087WRU1 (A0A087WRU1 whole entry): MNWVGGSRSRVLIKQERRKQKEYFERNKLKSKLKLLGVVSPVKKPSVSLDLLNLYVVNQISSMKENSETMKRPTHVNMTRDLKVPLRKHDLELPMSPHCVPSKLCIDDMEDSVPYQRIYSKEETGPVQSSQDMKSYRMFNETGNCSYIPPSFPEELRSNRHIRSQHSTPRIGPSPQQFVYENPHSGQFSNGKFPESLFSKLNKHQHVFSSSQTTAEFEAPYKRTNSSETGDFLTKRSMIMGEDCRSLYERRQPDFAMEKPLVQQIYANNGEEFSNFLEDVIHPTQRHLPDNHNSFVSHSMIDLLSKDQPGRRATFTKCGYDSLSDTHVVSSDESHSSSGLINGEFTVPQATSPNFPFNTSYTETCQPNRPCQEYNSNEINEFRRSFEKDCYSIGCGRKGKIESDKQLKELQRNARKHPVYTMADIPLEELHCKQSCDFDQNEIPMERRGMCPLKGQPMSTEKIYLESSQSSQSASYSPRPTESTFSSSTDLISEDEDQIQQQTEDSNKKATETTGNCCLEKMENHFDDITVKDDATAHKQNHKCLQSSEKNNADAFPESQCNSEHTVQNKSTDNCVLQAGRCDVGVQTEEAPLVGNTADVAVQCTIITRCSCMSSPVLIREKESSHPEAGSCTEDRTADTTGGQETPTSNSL

Chain of UniProt Q8TC57 (Q8TC57 whole entry): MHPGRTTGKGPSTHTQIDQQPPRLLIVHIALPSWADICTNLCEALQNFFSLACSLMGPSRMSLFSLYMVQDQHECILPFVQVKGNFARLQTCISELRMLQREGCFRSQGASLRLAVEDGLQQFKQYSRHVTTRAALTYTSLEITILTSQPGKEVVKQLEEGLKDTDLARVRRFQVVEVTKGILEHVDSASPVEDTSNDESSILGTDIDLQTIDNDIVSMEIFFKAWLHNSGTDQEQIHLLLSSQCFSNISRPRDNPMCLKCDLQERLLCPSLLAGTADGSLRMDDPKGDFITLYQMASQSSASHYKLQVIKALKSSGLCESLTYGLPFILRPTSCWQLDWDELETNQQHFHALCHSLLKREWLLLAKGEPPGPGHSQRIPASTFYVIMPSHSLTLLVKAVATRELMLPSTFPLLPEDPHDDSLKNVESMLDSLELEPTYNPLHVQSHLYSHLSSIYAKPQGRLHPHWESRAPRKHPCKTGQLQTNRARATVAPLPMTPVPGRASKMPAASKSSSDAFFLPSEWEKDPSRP
Chain of UniProt Q9Z0E1 (Q9Z0E1 whole entry): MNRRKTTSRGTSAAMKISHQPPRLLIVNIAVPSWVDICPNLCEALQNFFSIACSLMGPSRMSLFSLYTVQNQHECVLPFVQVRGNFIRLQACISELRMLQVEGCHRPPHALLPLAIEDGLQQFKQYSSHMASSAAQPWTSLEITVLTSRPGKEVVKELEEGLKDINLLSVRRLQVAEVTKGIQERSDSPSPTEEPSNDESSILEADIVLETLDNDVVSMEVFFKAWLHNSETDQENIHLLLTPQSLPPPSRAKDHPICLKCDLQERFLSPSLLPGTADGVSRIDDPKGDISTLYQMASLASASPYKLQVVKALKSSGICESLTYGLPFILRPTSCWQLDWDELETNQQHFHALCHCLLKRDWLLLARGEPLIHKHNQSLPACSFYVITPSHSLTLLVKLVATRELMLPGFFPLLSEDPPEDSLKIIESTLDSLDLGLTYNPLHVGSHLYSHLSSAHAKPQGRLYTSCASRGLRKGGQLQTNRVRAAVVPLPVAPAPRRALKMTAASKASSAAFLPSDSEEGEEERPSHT
Chain of UniProt Q86WS4 (Q86WS4 whole entry): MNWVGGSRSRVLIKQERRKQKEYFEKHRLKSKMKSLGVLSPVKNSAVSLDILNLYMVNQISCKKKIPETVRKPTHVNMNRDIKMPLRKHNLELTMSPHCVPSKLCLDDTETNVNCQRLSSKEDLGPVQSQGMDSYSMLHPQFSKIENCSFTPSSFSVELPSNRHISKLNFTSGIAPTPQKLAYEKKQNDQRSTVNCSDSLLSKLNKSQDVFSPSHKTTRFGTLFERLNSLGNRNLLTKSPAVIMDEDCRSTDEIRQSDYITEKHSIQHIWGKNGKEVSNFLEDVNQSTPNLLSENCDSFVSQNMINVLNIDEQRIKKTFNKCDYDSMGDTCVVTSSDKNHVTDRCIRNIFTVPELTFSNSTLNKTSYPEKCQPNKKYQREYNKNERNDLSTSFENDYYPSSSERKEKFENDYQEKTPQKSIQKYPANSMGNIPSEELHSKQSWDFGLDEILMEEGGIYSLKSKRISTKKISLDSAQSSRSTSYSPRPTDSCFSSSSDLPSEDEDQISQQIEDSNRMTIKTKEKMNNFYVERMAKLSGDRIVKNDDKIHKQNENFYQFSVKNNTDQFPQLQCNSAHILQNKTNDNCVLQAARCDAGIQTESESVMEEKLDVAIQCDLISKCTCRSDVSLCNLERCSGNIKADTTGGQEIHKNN

ratio to parent [1]	ratio to parent [2]	ratio to parent [3]	ratio to parent [4]	Substance
1	0.44	–	–	human SHOC1-XPF (WT, FLAG-tagged) Q590R
–	–	0.5	1.1	mouse SHOC1-XPF (WT, FLAG-tagged) Q646R
